Reference: the nanobody polyreactivity screen of Harvey et al. (2022)

experiment: yeast display, Sf9 membrane polyspecificity reagent, FACS + sequencing; frameworks hold sequencing errors
Method in brief: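 Genes from sorted yeast were amplified by colony PCR, read by MiSeq 2 × 250 sequencing and filtered on CDR length. These cells carried a synthetic nanobody library in Saccharomyces cerevisiae BJ5465 and were sorted by FACS into low and high (top ~1%) gates on anti-HA and streptavidin fluorescence. Polyreactivity is labelled according to the gate of origin.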

Q: Which “polyreactivity (PSR sort gate)” value does the source give for “QVPLVESGGGLVQAGGSLRLSCAASGFTFYAYTMGWYRQAPGKERELVAAINKSGSSKYYADSVKGRFTISRDNAKNTVYLQMNSLKPEDTAVYFCNAYYRKVLGYDKMDYWGQGTQVTVSS” here?
A: high polyreactivity

Q: For “QVPLVESGGGLVQAGGSLRLSCAASGIIFGKYTMGWYRQAPGKERELVAAISKRGGSTYYADSVKGRFTISRDNAKNTVYLQMYSLKRVDTAVYYCAAERISSYDYWGQGTQVTVSS”, which “polyreactivity (PSR sort gate)” value is on record?
A: high polyreactivity

Q: Which “polyreactivity (PSR sort gate)” value does the source give for “QVPLVESGGGLVQAGGSLRLSCAASGLIFRTYTMGWYRQAPGKERELVATITRRGGTTYYADSVKGRFTLSRDNAKNTVYLQMNSLKPEDTAVYYCAKSPYYTWKYDYWGQGTQVTVSS” here?
A: high polyreactivity

Q: Which “polyreactivity (PSR sort gate)” value does the source give for “QVPLVESGGGLVQAGGSLRLSCAASGLTFDIYTMGWYRQAPGKERELVARISTSGSRTYYADSVKGRFTISRDYAKNTVYLQMNSLIPEDTAVYYCNKDGWIRRRRGSDYWGQGTQVTVSS” here?
A: high polyreactivity

Q: With “QVPLVESGGGLVQAGGSLRLSCAASGRTFTPNGMGWYRQAPGKERELVAAITYGGGITDYADSVKGRFTISRDNAKNTVYLQMNSLKPEDTAVYYCAATTLSFEGGKYWSKYDYWGQGTQVTVSS” as the sequence, how does the “polyreactivity (PSR sort gate)” value read?
A: low polyreactivity

Q: Which “polyreactivity (PSR sort gate)” value does the source give for “QVPLVESGGGLVQAGGSLRLSCAASGSIFYPYAMGWYRQAPGKERELVASITWSGGSTYYADSVKGRITISRDNATNSVYRQMNSLKPEDTAVYYCAADEKLYITGYDYWGQGTQVTVSS” here?
A: low polyreactivity

Q: For “QVPLVESVGGLVQAGGRLRLSCAASGSIFGHNTMGWYREAPGKERELVAAISVSGTRTYYADSVKGRFTISRDNAKNTVYLQMNSLKPEDTAVYYCAAEISRVRQGVAWSYKYEYWGQGTQVTVSS”, which “polyreactivity (PSR sort gate)” value is on record?
A: high polyreactivity

Q: Which “polyreactivity (PSR sort gate)” value does the source give for “QVPLVESVGGLVQAGGSLRLSCAASGTIFFGYAMGSYRQAPGKERDLVASISSGDTTYYADSVKGRFTISRDNAKNTVYLQMNSLKPEDTAVYYCAAREGQLWEDGDYWGQGTQVTVSS” here?
A: low polyreactivity

Q: With “QVPLVETGGGLVQAGGSLRLSCAASGRTFNVYAMGWYRQAPGKERELVASITWDDGTTYNADSVKGRFTNSRDNAKNTVYLQMNSLKPEVTAVYYCAADGIYRGAWSTVYESPGYDYWGQGTQVTVSS” as the sequence, how does the “polyreactivity (PSR sort gate)” value read?
A: low polyreactivity

Q: Which “polyreactivity (PSR sort gate)” value does the source give for “QVPQQESGGGLVQAGGSLRLSCAASGTIFQLTVMGRYRQAPGKERELVSSIDYGGNTNYADIVKGRFSISRVNAKNTVYLQMNRLKPEDTSVYYFAASSDSWTTHPYWGQATQVTVSS” here?
A: low polyreactivity

Q: For “QVQFVESGGGLVQAGGSLRVSCAASGSTFQGYAMGWSRQAPGKERELVAAISRSGGRTYYADSVKGRFTISRDNAKNTVYLQMNSLKPEDTAVYYCAAEGHELTEGDSWGQGTQVTVSS”, which “polyreactivity (PSR sort gate)” value is on record?
A: low polyreactivity

Q: For “QVQHEESGGGLVQAGGSLRLSCAASGRTYDPYAMGWYRQAPGKERELVAAISSGGSTNYADSVKGRFTISRDNAKNTVYLQMNSLKPEDTAVYYCGTDSGDGEGDYWGQGSQVTVSS”, which “polyreactivity (PSR sort gate)” value is on record?
A: low polyreactivity

Q: For “QVQHEESGGGLVQAGGSLRLSCAASGSIFLHYAIGWYRQAPGKERVFVAAISFRSGSTYYADSVKGRFTISRDNAKNTVYLKLNSLKPEDTAVYYCASKSYNFIPGIREYDYWGQGTQVTVSS”, which “polyreactivity (PSR sort gate)” value is on record?
A: low polyreactivity

Q: Which “polyreactivity (PSR sort gate)” value does the source give for “QVQHEESGGGLVQAGGSLRLSCAASGSIFLWNAMGSYRQAPGKERELVASIGDSTYYADSVKGRFTISRDNAKNTVYLQMNSLKPEDTAVYYCKAEVLNYLVFGYQLCYDYWGQGTQVTVSS” here?
A: low polyreactivity

Q: Which “polyreactivity (PSR sort gate)” value does the source give for “QVQHGESGGGLLQAGGSLRLSCAASGFIFGVYEMGWYRQAPGKDTELVAAIMRSGGSTYYADSVKGRFTISRDIAKNTVYLQMNSLKPEDTAVYYCAAAYTGKYRKYDYWGQGTQVTVSS” here?
A: high polyreactivity

Q: With “QVQHGESGGGLVQAGGRLRLICAASGSISVWYVMGWYRQAPGKERELVAAITRSGGSTFYADSVKGRFTISRDNAKNTVYLEMNSLKPEDTAVYYCAADFPSLYVWYGYGWYKYDYWGQGTQVTVSS” as the sequence, how does the “polyreactivity (PSR sort gate)” value read?
A: low polyreactivity

Q: For “QVQHLESGGGVVQAGGSIRLSCAASVIIFRAYAMGWYRQAPGKERELVAAITSRGGSTYYADSVKGRFTFSRDNAKNTVYLQMNSLKQEDTAVYYCNAAALADYDYWGQGTQVTLSS”, which “polyreactivity (PSR sort gate)” value is on record?
A: low polyreactivity

Q: Which “polyreactivity (PSR sort gate)” value does the source give for “QVQHVDSGGGLVQAGGSLRLSCAASGRTLTVYAMGWYRQAPGKERELVAAITWRGGSTYYADSVKGRFTISRDNAKNTVYLPMNSLKPADTPVDYCAAEDYTYNGGGYEYWGQGTQVTVSS” here?
A: low polyreactivity

Q: For “QVQHVDSRGGLVQAGGSLRLSCAASGSIVPWNDMGWYRQAPGKERQLVAAITYRGGRTYYADSVKGRFTISRDNAKNTVYLQMNSLKPEDTAVYYCATKSRRNSPRMDYWGQGTQVTVSS”, which “polyreactivity (PSR sort gate)” value is on record?
A: high polyreactivity

Q: With “QVQHVESAAGLVQAGCSLRLSGAASGRIFRGYAMGWSRPAHGNEWELVAGITWGGGSTYYADSVKGRFTISRDKAKNTVYLQMNSLKPEDTAVYYCNAVRPRQWWTHFGYWGQGTQVTVSS” as the sequence, how does the “polyreactivity (PSR sort gate)” value read?
A: high polyreactivity

Q: Which “polyreactivity (PSR sort gate)” value does the source give for “QVQHVESAAGLVQAGGSLRLSCAASGRIFYATVMGWYRQAHGKVREFVAAIRWSGSTYYADSVKGRFTISRDNAKNTVYLQMNSLKRVDTAVYYCADEGSRWYYFFYVGGGYWGQGTQVTVSS” here?
A: low polyreactivity

Q: Which “polyreactivity (PSR sort gate)” value does the source give for “QVQHVESAGALVQAGGSLRLSCAASRRTFYRYPMGWYRQAPGKERELVAAISSNGGSTYYADSVKGRFTISRDNGKNTVYLQMNSLKPEDTAVYYCYYYNSRLFDYWGQGTQVTVSS” here?
A: high polyreactivity

Q: With “QVQHVESAGGLVQAGGSLRLSCAASGRTFSRYAMGWYRQAPGKERELVATITRGGSTNYADSVKGRFTISRDNAKNRVYLQMNSQKPEDTSVYYFIAGCFRYQGTLNHFYYWGQGTQVTVSS” as the sequence, how does the “polyreactivity (PSR sort gate)” value read?
A: low polyreactivity

Q: With “QVQHVESARGLVPAGGSLRLSCAASGFTVIRYAMGRYRQAPGKERELVAAIRGTGTSTYYADSVKGRFTISRDIAKNTVYLQLNSLKPEDTAVYYCNKVAGRSPYTRYDYWGQGTQVTVSS” as the sequence, how does the “polyreactivity (PSR sort gate)” value read?
A: low polyreactivity

Q: For “QVQHVESGAGIVQAGGSLRLSCAASGSTFKRYAMGWYRQAPGKERELVAAITWRGGSTYYADSVKGRFTISRDNAKNTVYLLMNSLKPDDTAVYYCASDYVYRYDYWGQGTQVTVSS”, which “polyreactivity (PSR sort gate)” value is on record?
A: high polyreactivity

Q: Which “polyreactivity (PSR sort gate)” value does the source give for “QVQHVESGAGLVQAGGSLLLSCAASGRIFQKYPMGWYRQSPGKERELVAAISRGGSTYYADSVKGRFTISRDNAKNTVYLQMISLNPEDTAVYFCASTSYRRTGYNYWGQGTQVTVSS” here?
A: high polyreactivity

Q: Which “polyreactivity (PSR sort gate)” value does the source give for “QVQHVESGAGLVQAGGSLRLSCAASGNTFTWYTRGWSRQAPGKERELVAVITSDGATYYADSVKGRFTISRDNAKNTVYLQMNSLKPEDTAVYYCNALSAEWYPEEDYWGQGTQVTVSS” here?
A: low polyreactivity

Q: Which “polyreactivity (PSR sort gate)” value does the source give for “QVQHVESGAGLVQAGGSLRLSCAASGSTFFRANAMGLDRQEPGKERELVAAITGSGGRTYYADSVKGRFTISRDNAKNTVYLQMNSLKPEDTAVYYCATHGVSRPYDYWGPGTQVTVSS” here?
A: high polyreactivity

Q: With “QVQHVESGGALVQAGGSLRLSCAASGFTFTRNTMGWYRQAPGKERELVAAITRGGSTNYADSVKGRFTISRDNAKNTVYLQMNSLKPEDTAVYYCNKGRNVVLVRTADDYWGQGTQVTVSS” as the sequence, how does the “polyreactivity (PSR sort gate)” value read?
A: low polyreactivity

Q: Which “polyreactivity (PSR sort gate)” value does the source give for “QVQHVESGGGIVQAGGSLRLSCAASGLTFVYYAMGWYRQAPGTERELVAAISSGGRTYYADSVKGRFTISRDNAKKTVYLQMNSLKPDDTAVYYCAAYGGTHYTYRYDYWGQGTQVTVSS” here?
A: high polyreactivity
